This note sets out measurements from doi:10.1101/2022.05.13.491168.

Data set [1] deals with CvkR (Cas V-K repressor, Alr3614) of Anabaena (Nostoc) sp. PCC 7120 (Anabaena (Nostoc) sp. PCC 7120). The data set is described as follows: SEC. A general note: SEC sorts molecules by how far they enter the pores of the column.
Another data set deals with CvkR (Alr3614) (Anabaena (Nostoc) sp. PCC 7120, UniProt A0ACD6B984 19-168). The data set is described as follows: EMSA.

Regarding “CvkR (Cas V-K repressor, Alr3614) of Anabaena (Nostoc) sp. PCC 7120 (natural protein)”, in data set [1], the stoichiometry N (usually the number of molecules, sites or subunits per partner or assembly) is 2.

B1: Pcas12k (P82) (dsDNA)
DNA 1: AAGAAACATCCTATAGAAGCATCTTCTAAAACACATTAGTGCTTTGTATAACATTATGTGTTTTGTATGGTATTTTATTTTT
DNA 2: AAAAATAAAATACCATACAAAACACATAATGTTATACAAAGCACTAATGTGTTTTAGAAGATGCTTCTATAGGATGTTTCTT
For the molecule B1, the binding result in the data set with CvkR (Alr3614) was “binds”.
